In article PMC10202413:

Target: T1, protein tyrosine kinase 7 (PTK-7) on HCT-116 cells (UniProt Q13308)
T1 sequence: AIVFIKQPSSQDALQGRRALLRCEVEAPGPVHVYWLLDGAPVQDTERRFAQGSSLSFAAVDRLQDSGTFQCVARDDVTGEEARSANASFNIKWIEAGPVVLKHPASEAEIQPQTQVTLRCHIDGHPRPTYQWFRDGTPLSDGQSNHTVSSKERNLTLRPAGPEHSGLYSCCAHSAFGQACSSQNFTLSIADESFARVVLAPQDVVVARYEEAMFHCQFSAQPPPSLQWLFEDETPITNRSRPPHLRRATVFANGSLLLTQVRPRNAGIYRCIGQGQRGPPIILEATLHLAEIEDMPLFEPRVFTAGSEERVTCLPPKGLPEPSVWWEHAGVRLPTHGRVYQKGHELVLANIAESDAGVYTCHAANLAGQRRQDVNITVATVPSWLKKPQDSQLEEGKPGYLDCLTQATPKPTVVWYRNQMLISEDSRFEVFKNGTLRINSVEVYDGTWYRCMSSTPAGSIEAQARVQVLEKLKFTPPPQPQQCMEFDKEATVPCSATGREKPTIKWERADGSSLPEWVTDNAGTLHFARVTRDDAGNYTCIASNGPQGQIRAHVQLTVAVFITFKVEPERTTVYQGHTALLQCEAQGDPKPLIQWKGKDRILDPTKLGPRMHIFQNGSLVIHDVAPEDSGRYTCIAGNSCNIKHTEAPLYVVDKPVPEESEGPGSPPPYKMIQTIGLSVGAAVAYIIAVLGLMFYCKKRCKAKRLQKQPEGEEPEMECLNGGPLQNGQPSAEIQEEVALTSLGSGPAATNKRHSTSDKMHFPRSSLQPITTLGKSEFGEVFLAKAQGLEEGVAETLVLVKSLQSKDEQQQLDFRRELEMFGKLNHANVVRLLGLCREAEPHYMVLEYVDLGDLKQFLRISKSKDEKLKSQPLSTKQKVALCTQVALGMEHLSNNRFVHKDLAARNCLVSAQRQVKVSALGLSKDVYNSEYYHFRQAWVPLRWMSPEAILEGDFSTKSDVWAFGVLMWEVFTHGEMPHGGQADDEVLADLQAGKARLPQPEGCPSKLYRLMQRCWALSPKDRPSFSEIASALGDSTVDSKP
Test: flow cytometry, cell binding
Conditions: 5 mM Mg2+, Whole cells washed in D-PBS with 4.5 g/L glucose and 5 mM MgCl2, 300,000 cells in 200 ul binding buffer (composition and pH not stated), on ice 30 min …

Sequence	Kd (5' amino coupled to p-SCN-Bn-NOTA) [nM]	Kd [nM]
ATCTAACTGCTGCGCCGCCGGGAAAATACTGTACGGTTAGA [NOTA-SGC8]	3.49	–
ATCTAACTGCTGCGCCGCCGGGAAAATACTGTACGGTTAGA [SGC8]	–	1.88
